This is an account of results in patent publication US20240400675A1 (published 2024).

One test deals with T1, mouse CLDN6 (mouse, UniProt Q9Z262 1-219).
T1 construct: whole, on cells; also called murine CLDN6
T1 sequence (looked up): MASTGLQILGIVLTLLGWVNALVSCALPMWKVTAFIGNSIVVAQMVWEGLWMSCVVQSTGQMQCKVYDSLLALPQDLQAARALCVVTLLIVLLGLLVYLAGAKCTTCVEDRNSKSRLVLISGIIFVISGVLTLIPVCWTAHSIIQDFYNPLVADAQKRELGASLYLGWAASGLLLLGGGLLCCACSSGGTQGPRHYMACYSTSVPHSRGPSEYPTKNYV
Nature of the test: flow cytometry on transfected HEK293E cells. The protocol:
(§1) The following experiments used to screen CLDN6 binding domains were generally performed as follows. HEK293T or HEK293E cells were respectively stably or transiently transfected to express CLDN6, CLND9, or other targets of interest. 48 hours post transfection, cells were harvested and incubated with dilutions of the indicated test articles for 1 hour at 4° C. […] Binding was then assessed via flow cytometry.

The target in another test is T2, CLDN6 I143V isotype (human, UniProt P56747 1-220).
T2 chain: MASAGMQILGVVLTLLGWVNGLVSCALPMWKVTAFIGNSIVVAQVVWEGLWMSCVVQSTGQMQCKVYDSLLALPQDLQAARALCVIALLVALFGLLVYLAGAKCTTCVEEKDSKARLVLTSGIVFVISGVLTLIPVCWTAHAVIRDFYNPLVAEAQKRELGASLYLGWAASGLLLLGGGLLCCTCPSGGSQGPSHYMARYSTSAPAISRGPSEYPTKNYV
Nature of the test: flow cytometry on transfected HEK293E cells. The protocol: as §1
For orientation: Flow cytometry measures light scatter and fluorescence of single cells or particles in a stream.

Test [1] concerns the target T3, human CLDN6 (human, UniProt P56747 1-220).
T3 construct: also called Claudin 6
T3 sequence: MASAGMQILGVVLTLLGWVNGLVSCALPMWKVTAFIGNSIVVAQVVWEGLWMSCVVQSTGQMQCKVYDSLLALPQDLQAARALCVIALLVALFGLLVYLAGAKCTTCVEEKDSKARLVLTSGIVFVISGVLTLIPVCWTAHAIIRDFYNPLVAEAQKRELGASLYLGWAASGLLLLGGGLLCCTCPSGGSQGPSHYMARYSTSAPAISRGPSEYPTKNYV
The test is described as follows: flow cytometry on transfected HEK293E cells. On the procedure:
as §1

In the next test the target is T4, human CLDN8 (human, UniProt P56748 1-225).
T4 construct: whole, on cells
T4 sequence (looked up): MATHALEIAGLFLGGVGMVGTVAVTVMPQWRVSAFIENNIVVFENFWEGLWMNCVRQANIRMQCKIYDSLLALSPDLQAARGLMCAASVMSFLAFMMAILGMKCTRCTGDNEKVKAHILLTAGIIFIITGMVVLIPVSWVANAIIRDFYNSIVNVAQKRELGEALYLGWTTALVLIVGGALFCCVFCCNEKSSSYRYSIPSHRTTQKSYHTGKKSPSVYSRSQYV
Nature of the test: flow cytometry on transfected cells.

The target of a further test is T5, human CLDN17 (human, UniProt P56750 1-224).
T5 construct: whole, on cells
T5 sequence (looked up): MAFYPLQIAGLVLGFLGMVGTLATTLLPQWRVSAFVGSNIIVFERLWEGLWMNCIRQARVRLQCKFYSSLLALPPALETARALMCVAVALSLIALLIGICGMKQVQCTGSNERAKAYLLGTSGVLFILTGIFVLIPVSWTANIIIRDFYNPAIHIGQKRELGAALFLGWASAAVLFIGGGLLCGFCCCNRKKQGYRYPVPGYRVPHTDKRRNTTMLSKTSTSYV
Nature of the test: flow cytometry on transfected cells.

A further test has as its target T6, human CLDN5 (human, UniProt O00501 1-218).
T6 construct: whole, on cells
T6 sequence (looked up): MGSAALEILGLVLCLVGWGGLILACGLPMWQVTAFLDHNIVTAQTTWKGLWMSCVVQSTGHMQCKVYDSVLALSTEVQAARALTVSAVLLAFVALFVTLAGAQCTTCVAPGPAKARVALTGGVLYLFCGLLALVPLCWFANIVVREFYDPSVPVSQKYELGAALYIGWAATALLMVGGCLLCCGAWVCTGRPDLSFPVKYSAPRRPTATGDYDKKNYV
Nature of the test: flow cytometry on transfected cells.

Test [2] has as its target T3, human CLDN6. The test is described as follows: flow cytometry on HEK293E cells expressing CLDN6. The protocol:
as §1

B1: XENP34638 (C6-30_H2L1 x CD3 bsAb in the 2+1 Fab2-scFv-Fc format) (bispecific antibody)
heavy 1: EVQLVQSGAEVKKPGESLRISCKTSGYTFTEYTMHWVRQMPGKSLEWMGGIDPNNGNTHYNQKFQGHVTISVDKSISTAYLQWSSLKASDTAMYYCARIYYFGRLYFDFWGAGTLVTVSSASTKGPSVFPLAPSSKSTSGGTAALGCLVKDYFPEPVTVSWNSGALTSGVHTFPAVLQSSGLYSLSSVVTVPSSSLGTQTYICNVNHKPSDTKVDKKVEPKSCDKTHTCPPCPAPPVAGPSVFLFPPKPKDTLMISRTPEVTCVVVDVKHEDPEVKFNWYVDGVEVHNAKTKPREEEYNSTYRVVSVLTVLHQDWLNGKEYKCKVSNKALPAPIEKTISKAKGQPREPQVYTLPPSREEMTKNQVSLTCDVSGFYPSDIAVEWESDGQPENNYKTTPPVLDSDGSFFLYSKLTVDKSRWEQGDVFSCSVMHEALHNHYTQKSLSLSPGK
heavy 2: EVQLVQSGAEVKKPGESLRISCKTSGYTFTEYTMHWVRQMPGKSLEWMGGIDPNNGNTHYNQKFQGHVTISVDKSISTAYLQWSSLKASDTAMYYCARIYYFGRLYFDFWGAGTLVTVSSASTKGPSVFPLAPSSKSTSGGTAALGCLVKDYFPEPVTVSWNSGALTSGVHTFPAVLQSSGLYSLSSVVTVPSSSLGTQTYICNVNHKPSNTKVDKKVEPKSCGGGGSGGGGSQAVVTQEPSLTVSPGGTVTLTCGSSTGAVTTSNYANWVQQKPGKSPRGLIGGTNKRAPGVPARFSGSLLGGKAALTISGAQPEDEADYYCALWYSNHWVFGGGTKLTVLGKPGSGKPGSGKPGSGKPGSEVQLVESGGGLVQPGGSLRLSCAASGFTFSTYAMNWVRQAPGKGLEWVGRIRSKYNNYATYYADSVKGRFTISRDDSKNTLYLQMNSLRAEDTAVYYCVRHGNFGDSYVSWFAYWGQGTLVTVSSGGGGSGGGGSKTHTCPPCPAPPVAGPSVFLFPPKPKDTLMISRTPEVTCVVVDVKHEDPEVKFNWYVDGVEVHNAKTKPREEQYNSTYRVVSVLTVLHQDWLNGKEYKCKVSNKALPAPIEKTISKAKGQPREPQVYTLPPSREQMTKNQVKLTCLVKGFYPSDIAVEWESNGQPENNYKTTPPVLDSDGSFFLYSKLTVDKSRWQQGNVFSCSVMHEALHNHYTQKSLSLSPGK
light: not shown
notes: copies: 1 + 1 + 2
On to B1, for which the binding result is “binds” in the test with mouse CLDN6; “binds” with CLDN6 I143V isotype; “binds” with human CLDN6 [1]; “no binding” with human CLDN8; “no binding” with human CLDN17; “no binding” with human CLDN5.

B2: XENP34637 (C6-30_H2L1 x CD3 bsAb in the 1+1 Fab-scFv-Fc format) (bispecific antibody)
heavy: EVQLVQSGAEVKKPGESLRISCKTSGYTFTEYTMHWVRQMPGKSLEWMGGIDPNNGNTHYNQKFQGHVTISVDKSISTAYLQWSSLKASDTAMYYCARIYYFGRLYFDFWGAGTLVTVSSASTKGPSVFPLAPSSKSTSGGTAALGCLVKDYFPEPVTVSWNSGALTSGVHTFPAVLQSSGLYSLSSVVTVPSSSLGTQTYICNVNHKPSDTKVDKKVEPKSCDKTHTCPPCPAPPVAGPSVFLFPPKPKDTLMISRTPEVTCVVVDVKHEDPEVKFNWYVDGVEVHNAKTKPREEEYNSTYRVVSVLTVLHQDWLNGKEYKCKVSNKALPAPIEKTISKAKGQPREPQVYTLPPSREEMTKNQVSLTCDVSGFYPSDIAVEWESDGQPENNYKTTPPVLDSDGSFFLYSKLTVDKSRWEQGDVFSCSVMHEALHNHYTQKSLSLSPGK
scFv-Fc: not shown
light: not shown
notes: copies: 1 + 1 + 1
Take B2: the binding result in the test with mouse CLDN6 is on record as “binds”; with CLDN6 I143V isotype, “binds”; with human CLDN6 [1], “binds”; in the test with human CLDN8 it was “no binding”; with human CLDN17, “no binding”; in the test with human CLDN5, “no binding”.

B3: XENP37227 (C6-30_H1.9_L1.187), 2+1 Fab2-scFv-Fc bsAb with CD3 High-Int #1 (bispecific antibody)
heavy 1: QVQLVQSGAEVKKPGASVKVSCKTSGYTFTEYTMHWVRQAPGQSLEWMGGIDPNNANTHYNQKFQGRVTITVDKSASTAYMELSSLRSEDTAVYYCARIYYFGRLYFDFWGAGTLVTVSSASTKGPSVFPLAPSSKSTSGGTAALGCLVKDYFPEPVTVSWNSGALTSGVHTFPAVLQSSGLYSLSSVVTVPSSSLGTQTYICNVNHKPSDTKVDKKVEPKSCDKTHTCPPCPAPPVAGPSVFLFPPKPKDTLMISRTPEVTCVVVDVKHEDPEVKFNWYVDGVEVHNAKTKPREEEYNSTYRVVSVLTVLHQDWLNGKEYKCKVSNKALPAPIEKTISKAKGQPREPQVYTLPPSREEMTKNQVSLTCDVSGFYPSDIAVEWESDGQPENNYKTTPPVLDSDGSFFLYSKLTVDKSRWEQGDVFSCSVMHEALHNHYTQKSLSLSPGK
heavy 2: QVQLVQSGAEVKKPGASVKVSCKTSGYTFTEYTMHWVRQAPGQSLEWMGGIDPNNANTHYNQKFQGRVTITVDKSASTAYMELSSLRSEDTAVYYCARIYYFGRLYFDFWGAGTLVTVSSASTKGPSVFPLAPSSKSTSGGTAALGCLVKDYFPEPVTVSWNSGALTSGVHTFPAVLQSSGLYSLSSVVTVPSSSLGTQTYICNVNHKPSNTKVDKKVEPKSCGGGGSGGGGSQAVVTQEPSLTVSPGGTVTLTCGSSTGAVTTSNYANWVQQKPGKSPRGLIGGTNKRAPGVPARFSGSLLGGKAALTISGAQPEDEADYYCALWYSNHWVFGGGTKLTVLGKPGSGKPGSGKPGSGKPGSEVQLVESGGGLVQPGGSLRLSCAASGFTFSTYAMNWVRQAPGKGLEWVGRIRSKANNYATYYADSVKGRFTISRDDSKNTLYLQMNSLRAEDTAVYYCVRHGNFGDSYVSWFAYWGQGTLVTVSSGGGGSGGGGSKTHTCPPCPAPPVAGPSVFLFPPKPKDTLMISRTPEVTCVVVDVKHEDPEVKFNWYVDGVEVHNAKTKPREEQYNSTYRVVSVLTVLHQDWLNGKEYKCKVSNKALPAPIEKTISKAKGQPREPQVYTLPPSREQMTKNQVKLTCLVKGFYPSDIAVEWESNGQPENNYKTTPPVLDSDGSFFLYSKLTVDKSRWQQGNVFSCSVMHEALHNHYTQKSLSLSPGK
light: not shown
notes: copies: 1 + 1 + 2
In the case of B3, the binding result in the test with human CLDN6 [2] is listed as “binds”.

B4: XENP34229 (C6-30_H1L1 x CD3 bsAb in the 1+1 Fab-scFv-Fc format) (bispecific antibody)
heavy: QVQLVQSGAEVKKPGASVKVSCKTSGYTFTEYTMHWVRQAPGQSLEWMGGIDPNNGNTHYNQKFQGRVTITVDKSASTAYMELSSLRSEDTAVYYCARIYYFGRLYFDFWGAGTLVTVSSASTKGPSVFPLAPSSKSTSGGTAALGCLVKDYFPEPVTVSWNSGALTSGVHTFPAVLQSSGLYSLSSVVTVPSSSLGTQTYICNVNHKPSDTKVDKKVEPKSCDKTHTCPPCPAPPVAGPSVFLFPPKPKDTLMISRTPEVTCVVVDVKHEDPEVKFNWYVDGVEVHNAKTKPREEEYNSTYRVVSVLTVLHQDWLNGKEYKCKVSNKALPAPIEKTISKAKGQPREPQVYTLPPSREEMTKNQVSLTCDVSGFYPSDIAVEWESDGQPENNYKTTPPVLDSDGSFFLYSKLTVDKSRWEQGDVFSCSVMHEALHNHYTQKSLSLSPGK
scFv-Fc: QAVVTQEPSLTVSPGGTVTLTCGSSTGAVTTSNYANWVQQKPGKSPRGLIGGTNKRAPGVPARFSGSLLGGKAALTISGAQPEDEADYYCALWYSNHWVFGGGTKLTVLGKPGSGKPGSGKPGSGKPGSEVQLVESGGGLVQPGGSLRLSCAASGFTFSTYAMNWVRQAPGKGLEWVGRIRSKYNNYATYYADSVKGRFTISRDDSKNTLYLQMNSLRAEDTAVYYCVRHGNFGDSYVSWFAYWGQGTLVTVSSEPKSSDKTHTCPPCPAPPVAGPSVFLFPPKPKDTLMISRTPEVTCVVVDVKHEDPEVKFNWYVDGVEVHNAKTKPREEQYNSTYRVVSVLTVLHQDWLNGKEYKCKVSNKALPAPIEKTISKAKGQPREPQVYTLPPSREQMTKNQVKLTCLVKGFYPSDIAVEWESNGQPENNYKTTPPVLDSDGSFFLYSKLTVDKSRWQQGNVFSCSVMHEALHNHYTQKSLSLSPGK
light: not shown
notes: copies: 1 + 1 + 1
On to B4, for which the binding result is “binds” in the test with mouse CLDN6; “binds” with CLDN6 I143V isotype; “binds” with human CLDN6 [1]; “no binding” in the test with human CLDN8; “no binding” with human CLDN17; “no binding” with human CLDN5.
